Assay results taken from doi:10.1101/2021.05.03.442466.

Key:
[1] = molecular target: salt stripped chicken erythrocyte mononucleosomes (chicken (endogenous in erythrocytes)); assay: native gel or EMSA
HMGN1 = HMGN1 (UniProt P05114); assay: co-IP
HMGN2 = HMGN2 (UniProt P05204); assay: co-IP

Row | H3K27ac level in HA complexes over LA MNs (dot blot) [1] | H3K27ac level in HMGN-bound ON over input ON (dot blot) (HMGN1) | H3K27ac signal in HMGN1-bound over input nucleosomes (Western) (HMGN1) | H3K27ac level in HMGN-bound ON over input ON (dot blot) (HMGN2) | H3K27ac level in HA over LA fraction (Western) [1] | percent of total MNs not shifted (LA fraction) at HMGN:MN ratio 2.0 [1] | percent of total MNs shifted (HA fraction) at HMGN1:MN ratio 0.2 [1] | Molecule
1 | 1.5 times | – | – | – | – | – | – | HMGN2 (from UniProt P05204 1-90) (natural protein)
2 | – | > 3 fold | 2.7 fold | > 3 fold | – | – | – | salt-stripped oligonucleosomes from mouse embryonic fibroblasts (complex)
3 | 1.5 times | – | – | – | 2 fold | 12% | 9% | HMGN1 (natural protein) MPKRKVSSAEGAAKEEPKRRSARLSAKPPAKVEAKPKKAAAKDKSSDKKVQTKGKRGAKGKQAEVANQETKEDLPAENGETKTEESPASDEAGEKEAKSD
